The experiment deals with P116 (residues 30–957), recombinant ectodomain of Mycoplasma pneumoniae P116 (Mycoplasma pneumoniae, UniProt P75556). As to the kind of experiment: cryo-EM structure.

Here are results for one molecule from paper PMC12708652 (Nature Communications, 2025).

Sequence of P116 (residues 30–957), recombinant ectodomain of Mycoplasma pneumoniae P116 (P75556 30-957): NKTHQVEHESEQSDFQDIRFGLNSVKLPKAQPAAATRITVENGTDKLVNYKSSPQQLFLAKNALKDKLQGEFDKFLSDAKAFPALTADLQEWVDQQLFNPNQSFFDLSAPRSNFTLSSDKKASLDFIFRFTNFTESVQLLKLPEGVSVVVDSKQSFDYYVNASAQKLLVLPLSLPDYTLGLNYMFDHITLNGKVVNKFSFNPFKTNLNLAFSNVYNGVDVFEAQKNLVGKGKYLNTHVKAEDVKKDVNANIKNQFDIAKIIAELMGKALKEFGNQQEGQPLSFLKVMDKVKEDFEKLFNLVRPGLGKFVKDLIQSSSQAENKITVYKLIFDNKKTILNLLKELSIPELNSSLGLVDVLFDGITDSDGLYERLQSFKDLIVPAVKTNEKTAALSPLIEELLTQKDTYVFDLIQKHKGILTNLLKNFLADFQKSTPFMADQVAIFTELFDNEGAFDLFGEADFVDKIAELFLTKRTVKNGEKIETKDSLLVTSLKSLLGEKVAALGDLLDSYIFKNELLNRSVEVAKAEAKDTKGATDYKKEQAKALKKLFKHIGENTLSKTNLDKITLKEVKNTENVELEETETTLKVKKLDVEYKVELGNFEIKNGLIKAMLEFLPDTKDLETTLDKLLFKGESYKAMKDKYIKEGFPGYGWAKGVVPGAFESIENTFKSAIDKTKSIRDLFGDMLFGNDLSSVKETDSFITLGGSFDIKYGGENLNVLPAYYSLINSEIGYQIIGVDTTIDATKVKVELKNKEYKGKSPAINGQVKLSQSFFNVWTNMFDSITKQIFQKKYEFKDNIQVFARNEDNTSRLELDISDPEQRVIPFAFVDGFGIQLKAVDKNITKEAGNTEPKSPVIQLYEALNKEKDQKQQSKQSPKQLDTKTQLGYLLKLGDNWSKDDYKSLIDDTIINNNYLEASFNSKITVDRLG

B1: monoclonal antibody (mAb) 3G9 against P116 (antibody, V domains shown)
VH: QVQLQQPGAELVKPGASVKLSCKASGYSFITYWMRWVRQRPGQGLEWIGQINPSNGHTNYDEKFKDRATLTVDKSSTTAYLQLSSLTSDDSAVYFCARSWEAMDYWGQGTSVTVSS
VL: DIVLTQSPATLSVTPGDSVSLSCRASQGISNNLHWYQQKSHESPRLLIKYASQSFSGIPSRFSGSGSGTVFTLTINSVETEDFGVYFCQQSYSWPIFTFGSGTNLQIK
B1: the binding result is on record as “binds”.
